The chains are these.
T1: human GFRAL expressed on cells (human, UniProt Q6UXV0 20-394)
T1 sequence: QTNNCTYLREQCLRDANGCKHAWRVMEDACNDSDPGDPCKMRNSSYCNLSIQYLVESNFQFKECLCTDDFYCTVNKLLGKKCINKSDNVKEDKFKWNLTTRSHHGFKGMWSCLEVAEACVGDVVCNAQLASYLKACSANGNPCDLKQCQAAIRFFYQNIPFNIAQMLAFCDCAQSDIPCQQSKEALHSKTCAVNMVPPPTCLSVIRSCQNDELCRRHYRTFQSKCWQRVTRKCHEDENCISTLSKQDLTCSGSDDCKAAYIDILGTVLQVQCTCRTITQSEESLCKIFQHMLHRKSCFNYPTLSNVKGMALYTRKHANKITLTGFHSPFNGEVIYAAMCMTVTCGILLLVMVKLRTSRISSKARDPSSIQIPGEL

T2: mouse GFRAL expressed on cells (mouse, UniProt Q6SJE0 20-393)
T2 sequence: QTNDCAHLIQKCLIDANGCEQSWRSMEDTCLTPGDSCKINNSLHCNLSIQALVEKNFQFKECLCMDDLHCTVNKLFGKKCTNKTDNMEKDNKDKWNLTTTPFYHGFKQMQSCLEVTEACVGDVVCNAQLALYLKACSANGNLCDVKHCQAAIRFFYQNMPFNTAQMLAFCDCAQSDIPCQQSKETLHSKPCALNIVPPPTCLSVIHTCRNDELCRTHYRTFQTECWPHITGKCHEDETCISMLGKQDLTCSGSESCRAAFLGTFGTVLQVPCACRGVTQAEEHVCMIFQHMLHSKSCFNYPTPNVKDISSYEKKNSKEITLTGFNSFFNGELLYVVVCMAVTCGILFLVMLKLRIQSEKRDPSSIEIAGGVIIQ

T3: human GFRAL (analyte in Biacore assays) (human, UniProt Q6UXV0 19-351, limits assumed)
T3 construct: injected in solution over captured antibody; also called hGFRAL
T3 sequence: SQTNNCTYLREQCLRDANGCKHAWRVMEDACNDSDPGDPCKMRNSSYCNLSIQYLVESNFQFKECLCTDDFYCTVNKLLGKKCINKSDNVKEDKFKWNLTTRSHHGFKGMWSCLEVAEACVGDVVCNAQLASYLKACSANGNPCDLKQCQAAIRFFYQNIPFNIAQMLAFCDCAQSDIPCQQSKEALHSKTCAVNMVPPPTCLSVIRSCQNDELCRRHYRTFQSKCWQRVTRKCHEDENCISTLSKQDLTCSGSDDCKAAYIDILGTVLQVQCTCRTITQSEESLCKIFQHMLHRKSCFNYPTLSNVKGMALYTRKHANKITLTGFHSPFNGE

T4: mouse GFRAL (analyte in Biacore assays) (mouse, UniProt Q6SJE0 20-349, limits assumed)
T4 construct: injected in solution over captured antibody
T4 sequence: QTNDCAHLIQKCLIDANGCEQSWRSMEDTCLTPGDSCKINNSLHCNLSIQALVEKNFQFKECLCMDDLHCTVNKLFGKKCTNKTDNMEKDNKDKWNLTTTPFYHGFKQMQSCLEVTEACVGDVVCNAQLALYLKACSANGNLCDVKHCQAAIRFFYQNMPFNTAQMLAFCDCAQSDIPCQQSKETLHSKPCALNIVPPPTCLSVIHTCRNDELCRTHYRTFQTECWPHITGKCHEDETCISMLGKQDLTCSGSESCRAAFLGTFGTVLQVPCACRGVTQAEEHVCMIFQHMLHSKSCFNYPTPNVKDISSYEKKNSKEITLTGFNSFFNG

B1: antibody designated 5A20 (antibody, V domains shown)
VH: QVQLQQSGPELMKPGASVILSCKAIGYTFTDYWIEWVKERPGHGLEWIGEILLGSDSIHFNEKFKGKATISADTSSNTAYMQLSSLTTEDSAIYYCVRQDWNWYFDVWGTGTTVTVSS
VL: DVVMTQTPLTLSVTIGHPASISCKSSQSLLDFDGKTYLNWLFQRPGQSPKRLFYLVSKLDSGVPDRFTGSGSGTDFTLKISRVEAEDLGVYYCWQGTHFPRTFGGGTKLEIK
notes: mouse hybridoma monoclonal
B2: antibody designated 22N5 (antibody, V domains shown)
VH: QNQLVQSGPELKKPGEIVKISCKTSGYTFTDYSMHWVKKTPGKGFKWMGWINTETGEPTYADDFKGRFAFSLETSANTAHLQITNLKNEDTATYFCVKGTLNYWGQGTTLTVSS
VL: DIKMTQSPSSMYASLGERVTITCKASQDIKSYLNWFQQKPGKSPKTLIYRTKRLVDGVPSRFSGSGSGQDYSLTVSSLEYDDVGIYYCLQYVEFPLTFGDGTKLELK
notes: mouse hybridoma monoclonal
B3: antibody designated 17J16 (antibody, V domains shown)
VH: QVQLQQSGAELAKPGASVKMSCKTSGYTFTDYWIHWVKQRPGQGLEWIGYINPNSNYAEYNQKFKVKATLTADKSSSTAYLQLSRLTSEDSAVYYCARFDWNWYFHVWGAGSTVTVSS
VL: DVALTQIPLTLSVTVGQPASISCKSSQSLSDSDGKTYLNWLLQKPGQSPKRLIYLVSRLGSGVPDRFTGSGSGADFTLKISRVEAEDLGVYYCWQGTHFPQTFGGGTKLEIK
notes: mouse hybridoma monoclonal
B4: antibody designated 24G2 (antibody, V domains shown)
VH: QVQLQQSGAELLKPGASVKLSCKASGYTFTTYWMHWVKQRPGQGLEWIGMIHPNSGSSNYNEKFKNKATLTVDKSSSTAYMQLSSLTSEDSAVYFCARSDYGFIPYFDYWGQGTTLTVSS
VL: DILLTQSPAILSVSPGERVSFSCRASQSIGTSIHWYQQRTNGSPRLLIKYASESISGIPSRFSGSGSGTDFTLIINSVESEDIADYYCQQSNSWPTFTFGAGTKLELK
notes: mouse hybridoma monoclonal
B5: antibody designated 2A9 (antibody, V domains shown)
VH: EVKLVESGGGLVKPGGSLKLSCAASGFTFSTYAMSWVRQTPEKRLEWVASITSGGTTYYTDSVKGRFTISRDNARNILYLQMSSLRSEDTAMYYCARDGNFYYYGMDYWGQGTSVTVSS
VL: DIVMTQSQKFMSTSVGDRVSITCKASQNVGTAVAWYQQKPGQSPKILIYSASNRFTGVPDRFTGSGSGTDFTLTISNMQSEDLADYFCQQYSSYFTFGGGTKLELK
notes: mouse hybridoma monoclonal
B6: humanized anti-GFRAL antibody HC-375d/LC-375a (antibody, V domains shown)
VH: QVQLVQSGAEVKKPGSSVKVSCKASGYTFTDYYINWVRQAPGQGLEWIGRIYPGNGNTYHNEKFKGRATLTADKSTSTAYMELSSLRSEDTAVYYCAREGLYYDYDRYFDYWGQGTLVTVSS
VL: DIVMTQSPDSLAVSLGERATINCRASESVDTYGNSFMHWYQQKPGQPPKLLIYLASNLESGVPDRFSGSGSGTDFTLTISSLQAEDVAVYYCHQNNEDPPAFGGGTKVEIK
notes: humanized 5F12
B7: humanized anti-GFRAL antibody HC-375d/LC-375c (antibody, IgG1, V domains shown)
VH: B6 VH
VL: DIQMTQSPSSLSASVGDRVTITCRASESVDTYGNSFMHWYQQKPGKAPKLLIYLASNLESGVPSRFSGSGSGTDFTLTISSLQPEDFATYYCHQNNEDPPAFGGGTKVEIK
notes: humanized 5F12
B8: humanized anti-GFRAL antibody HC-375e/LC-375g (antibody, IgG1, V domains shown)
VH: B6 VH with I48M, K74E
VL: B6 VL with M4L, G72R
notes: humanized 5F12
B9: humanized anti-GFRAL antibody HC-375d/LC-375g (antibody, IgG1, V domains shown)
VH: B6 VH
VL: B6 VL with M4L, G72R
notes: humanized 5F12
B10: humanized anti-GFRAL antibody HC-375e/LC-375c (antibody, IgG1, V domains shown)
VH: B6 VH with I48M, K74E
VL: B7 VL
notes: humanized 5F12
B11: humanized anti-GFRAL antibody HC-375e/LC-375a (antibody, V domains shown)
VH: B6 VH with I48M, K74E
VL: B6 VL
notes: humanized 5F12

Changes are numbered by the printed parent chain.

One assay has as its target T1, human GFRAL expressed on cells. Kind of assay: cell-based or functional assay.
In the case of B1, the “IC50, ELK1-luciferase reporter (hGFRAL/hRET)” value (from here on “IC50 … (hGFRAL/hRET)”) was 3.19 nM.

Take B2: the “IC50 … (hGFRAL/hRET)” value is 7.74 nM.

With B3, the “IC50 … (hGFRAL/hRET)” value amounted to 0.666 nM.

For the molecule B4, the “IC50 … (hGFRAL/hRET)” value worked out at 18.9 nM.

Take B5: the “IC50 … (hGFRAL/hRET)” value is 3.71 nM.

The target of a further assay is T2, mouse GFRAL expressed on cells. The assay is described as follows: cell-based or functional assay.
Regarding B1, the “IC50, ELK1-luciferase reporter (mGFRAL/mRET)” value (“IC50 … (mGFRAL/mRET)” for short) is 0.6 nM.

As to B2, the “IC50 … (mGFRAL/mRET)” value is 2.6 nM.

As for B3, the “IC50 … (mGFRAL/mRET)” value worked out at 0.407 nM.

Regarding B4, the “IC50 … (mGFRAL/mRET)” value is 8.32 nM.

On to B5, for which the “IC50 … (mGFRAL/mRET)” value was 7.87 nM.

The target of the next assay is T1, human GFRAL expressed on cells. Kind of assay: cell-based or functional assay. This is another data set of the same source.
Turning to B1, the “IC50, ERK phosphorylation in U2OS hGFRAL/hRET cells” value (shortened to “IC50 … in U2OS hGFRAL/hRET cells”) amounted to 1.8 nM.

Regarding B2, the “IC50 … in U2OS hGFRAL/hRET cells” value was determined as 0.9 nM.

Turning to B3, the “IC50 … in U2OS hGFRAL/hRET cells” value came out at 0.1 nM.

On to B4, for which the “IC50 … in U2OS hGFRAL/hRET cells” value is 1.86 nM.

As for B5, the “IC50 … in U2OS hGFRAL/hRET cells” value came out at 0.94 nM.

For the next assay the target is unchanged. Kind of assay: cell-based or functional assay. This is another data set of the same source.
Consider B6, for which the “IC50 … (hGFRAL/hRET)” value was 3.86 nM.

B7: the “IC50 … (hGFRAL/hRET)” value worked out at 3.28 nM.

Turning to B8, the “IC50 … (hGFRAL/hRET)” value amounted to 2.27 nM.

Turning to B9, the “IC50 … (hGFRAL/hRET)” value was 2.79 nM.

Take B10: the “IC50 … (hGFRAL/hRET)” value stood at 2.2 nM.

On to B11, for which the “IC50 … (hGFRAL/hRET)” value worked out at 2.81 nM.

The next assay deals with T3, human GFRAL (analyte in Biacore assays). The assay is described as follows: Biacore SPR, antibody captured, GFRAL injected. The procedure: (§1) In addition, the binding affinity of antibodies to human and mouse GFRAL were measured. For example, antibodies were rank ordered based on their binding affinity to human GFRAL and mouse GFRAL by low resolution KD measurement by Biacore. Briefly, an anti-mouse Fc antibody (Sigma-Aldrich, St. Louis, Mo.) was immobilized on all four flow cells of a CM5 chip using amine coupling reagents (GE Healthcare LifeSciences, Piscataway, N.J.). Purified antibodies were captured (˜100 RUs) on flow cells 2, 3 and 4 using flow cell 1 as a reference. This was followed by injection of human or mouse GFRAL (25 nM in PBS-P buffer) at a flow rate of 70 μL/m in and monitoring the binding kinetics at 25° C.
(§2) Binding affinity measurements were also made in additional Biacore based assays. For example, equilibrium dissociation constant (KD) measurements were carried out with purified antibodies to evaluate their binding to human GFRAL or mouse GFRAL. As mentioned above, anti-mouse Fc antibody (Sigma-Aldrich, St. Louis, Mo.) was immobilized on all four flow cells of a CM5 chip using amine coupling reagents (GE Healthcare LifeSciences, Piscataway, N.J.). Purified antibodies were captured (˜100 RUs) on flow cells 2, 3 and 4 using flow cell 1 as a reference. This was followed by injection of human or mouse GFRAL in PBS-P buffer) at a flow rate of 70 μL/min and the binding kinetics were evaluated at 25° C.
(In general: SPR reads the build-up and loss of mass on a sensor chip optically.)
As usually defined, the Kd is the free concentration of one partner at which half of the binding sites on the other are occupied at equilibrium, for simple one-to-one binding. The low end stands for higher affinity, the high end for lower affinity. For orientation: koff means the first-order rate constant of dissociation. Read a low koff as a long-lived complex. Molecule B1 yielded a dissociation constant (Kd) of 0.081 nM and a koff of 3.32e-05 s⁻¹.

In the case of B2, the Kd was determined as 0.21 nM and the koff worked out at 0.000132 s⁻¹.

In the case of B3, the Kd was less than 0.1 nM and the koff is roughly 1e-05 s⁻¹.

B4 displayed a Kd of 1.4 nM and a koff of 0.000696 s⁻¹.

On to B5, for which the Kd came out at 0.25 nM and the koff turned out to be 0.000153 s⁻¹.

The target in another assay is T4, mouse GFRAL (analyte in Biacore assays). The assay is described as follows: Biacore SPR, antibody captured, GFRAL injected. As for the experimental part: as §1, §2
Consider B1, for which the Kd was less than 0.1 nM and the koff was found to be 0.0004 s⁻¹.

B2 showed a Kd of 3.47 nM and a koff of 0.000943 s⁻¹.

Molecule B3 displayed a Kd of less than 0.1 nM and a koff of 1e-05 s⁻¹.

Turning to B4, the Kd was found to be 5.02 nM and the koff is 0.00173 s⁻¹.

For B5, binding was put at a Kd of 3.6 nM and the koff is 0.0029 s⁻¹.

The next assay has as its target T3, human GFRAL (analyte in Biacore assays). Kind of assay: Biacore SPR, antibody captured, human GFRAL injected. As for the experimental part: Exemplary humanized anti-GFRAL antibodies identified in Example 6 were assayed for their binding affinity to human GFRAL. Binding affinity measurements were made in Biacore based assays. For example, equilibrium dissociation constant (KD) measurements were carried out with purified antibodies to evaluate their binding to human GFRAL. Using methods described in Example II, anti-mouse Fc antibody (Sigma-Aldrich, St. Louis, Mo.) was immobilized on all four flow cells of a CM5 chip using amine coupling reagents (GE Healthcare LifeSciences, Piscataway, N.J.). Purified humanized anti-GFRAL antibodies were captured (˜100 RUs) on flow cells 2, 3 and 4 using flow cell 1 as a reference. This was followed by injection of human GFRAL in PBS-P buffer) at a flow rate of 70 μL/min and the binding kinetics were evaluated at 25° C.
B6 came in with a Kd of 0.074 nM.

B7: the Kd was determined as 0.075 nM.

B8 yielded a Kd of 0.081 nM.

Regarding B9, the Kd is 0.077 nM.

B10 displayed a Kd of 0.092 nM. This Kd and that of the molecule before are within 1.5-fold of each other.

On to B11, for which the Kd turned out to be 0.091 nM.

The values above are taken from US20170306031A1 (NGM BIOPHARMACEUTICALS, published 2017).
